Source: patent publication US20210063414A1, “METHODS FOR PREVENTING AND/OR TREATING BONE LOSS CONDITIONS BY MODULATING IRISIN” (Dana-Farber Cancer Institute, Inc., priority 2018, published 2021)

What was measured:
Test in all cases: Crosslinking/co-immunoprecipitation/mass spectrometry (TMT quantitative proteomics) to identify irisin receptors
Format in all cases: binding
[1] = molecular target: T1, MLO-Y4 cell surface proteins (Mus musculus, UniProt P48997); settings: co-precipitated protein Ivl (INVO_MOUSE)
T1 construct: endogenous in cells; host or cells: MLO-Y4
T1 sequence (P48997 1-467): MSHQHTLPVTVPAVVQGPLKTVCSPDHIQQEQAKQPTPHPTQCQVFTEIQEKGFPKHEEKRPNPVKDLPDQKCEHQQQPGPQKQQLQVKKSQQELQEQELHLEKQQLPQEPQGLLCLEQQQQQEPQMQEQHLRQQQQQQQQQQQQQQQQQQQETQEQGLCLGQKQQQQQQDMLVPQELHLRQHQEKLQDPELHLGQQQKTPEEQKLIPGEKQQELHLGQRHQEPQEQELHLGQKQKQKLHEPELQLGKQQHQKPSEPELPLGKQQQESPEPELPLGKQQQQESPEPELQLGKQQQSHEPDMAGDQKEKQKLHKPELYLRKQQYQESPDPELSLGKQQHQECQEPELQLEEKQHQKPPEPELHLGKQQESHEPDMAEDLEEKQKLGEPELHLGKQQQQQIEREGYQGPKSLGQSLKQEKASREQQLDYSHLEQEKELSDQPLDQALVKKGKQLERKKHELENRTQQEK
Protocol: (§1) MLO-Y4 cells were seeded on 30×150 mm type-I collagen coated dishes as described in cell culture experiment. At 60% cell density, medium was switched to FreeStyle™ 293 Expression medium. After 4 hours incubation, the cells were chilled on ice for 10 minutes, followed by treatment of 10 nM his-tag irisin or his-tag adipsin for 20 minutes. The cells were then incubated with 1.5 mM DTSSP for 30 minutes on ice to do cross-linking, after washing with 15 ml cold PBS twice. The cross-linking was quenched by addition of a final concentration of 20 mM Tris-pH 7.5. The cells were then harvested and homogenized in 1 ml RIPA buffer containing proteaseinhibitor cocktailand phosphatase-inhibitor cocktail. Whole-cell lysates were homogenized by 10 times passages through a 22G needle fitted to a 3 ml syringe. Homogenized samples were rotated gently in cold room for 20 minutes followed by 15,000×g centrifugation for 10 minutes. After addition of a final concentration of 10 mM imidazole, supernatants were incubated with 100 μl Ni-NTA agarose for 1 hour. After centrifugation at 500×g for 1 minute, the supernatants were aspirated and 1 ml cold RIPA buffer containing 10 mM imidazole were added to the agarose. After 10 minutes rotation in cold room, the supernatants were aspirated and 1 ml cold RIPA buffer containing 30 mM imidazole were added to the agarose. After repeating the washing 3 times, 0.8 ml RIPA buffer containing 250 mM imidazole was added and the agarose was gently rotated in a cold room for 20 minutes. After centrifugation at 1000×g for 2 minutes, the supernatants were transferred to 1.5 ml tube and incubated with 100 μl 0.2% sodium deoxycholate and 100 μl 10% trichloroacetic acid in ice for 1 hour. After centrifugation at 12,000×g for 10 minutes at 4° C., the supernatants were removed and 1 ml cold acetone was added to the pellets followed by vortexing for 10 seconds. After one more washing with cold acetone, the pellets were dried at 37° C., and 39 μl PBS and 13 μl 4×NuPAGE LDS were added to the pellets with a final concentration of 5 mM DTT. Solubilized proteins were incubated at 65° C. for 20 minutes followed by incubation with a final concentration of 14 mM iodoacetamide for 45 minutes in the dark. 38 μl samples were loaded to 4-12% gradient SDS-PAGE for separation followed by Coomassie Blue staining. The gels were submitted to quantitative proteomics.
(§2) For in-gel digestions, gels were stained with Coomassie Blue and were excised into 8 equal segments for control and irisin lanes. Gel pieces were destained and dehydrated with 100% acetonitrile, vacuumed dried, and digested in 25 mM HEPES (pH 8.5) with 500 ng sequencing grade trypsin (Promega) and incubated for an overnight at 37° C. (Shevchenko et al. (1996) Anal. Chem. 68:850-858). Digests were treated with 1% formic acid and purified using C18 Stage-Tips as previously described (Rappsilber et al. (2007) Nat. Protoc. 2:1896-1906). Peptides were eluted with 70% acetonitrile and 1% formic acid, then dried using a speedvac. Isobaric labeling of digested peptides was accomplished using 6-plex tandem mass tag (TMT) reagents (Thermo Fisher Scientific, Rockford, Ill.). Reagents, 5.0 mg, were dissolved in 252 μl acetonitrile (ACN) and 5 μl of the solution was added to the digested peptides dissolved in 25 μl of 200 mM HEPES, pH 8.5. After 1 hour at room temperature, the reaction was quenched by adding 1 μl of 5% hydroxylamine. Labeled peptides were combined and acidified prior to C18 Stage-Tips desalting.
(§3) All LC-MS/MS experiments were performed on an Orbitrap Fusion™ Lumos mass spectrometer (Thermo Fisher Scientific, San Jose, Calif., USA) coupled with a Proxeon EASY-nLC™ 1200 LC pump (Thermo Fisher Scientific). Peptides were separated on a 100 μm inner diameter microcapillary column packed with 35 cm of Accucore™ C18 resin (1.8 μm, 100 Å, Thermo Fisher Scientific). […]

[2] = molecular target: T2, MLO-Y4 cell surface proteins (Mus musculus, UniProt P56567); settings: co-precipitated protein Csta (CYTA_MOUSE)
T2 construct: endogenous in cells; host or cells: MLO-Y4
T2 sequence (P56567 1-97): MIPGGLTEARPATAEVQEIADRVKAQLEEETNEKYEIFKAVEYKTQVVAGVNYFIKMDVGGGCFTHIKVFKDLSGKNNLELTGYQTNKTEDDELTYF
Protocol: as §1, §2, §3

[3] = molecular target: T3, MLO-Y4 cell surface proteins (Mus musculus, UniProt Q66GT5); settings: co-precipitated protein Ptpmt1 (PTPM1_MOUSE)
T3 construct: endogenous in cells; host or cells: MLO-Y4
T3 sequence (Q66GT5 32-193): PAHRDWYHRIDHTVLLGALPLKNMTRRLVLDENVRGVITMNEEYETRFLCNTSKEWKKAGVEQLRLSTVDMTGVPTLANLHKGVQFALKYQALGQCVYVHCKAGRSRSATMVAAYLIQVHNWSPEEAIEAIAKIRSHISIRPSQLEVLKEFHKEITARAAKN
Protocol: as §1, §2, §3

Substance: adipsin
- TMT signal-to-noise ratio [1]: 222.079
- TMT signal-to-noise ratio [2]: 160.416
- TMT signal-to-noise ratio [3]: 92.3664
